From patent publication US20150344570A1 (published 2015)

T1: FcγRIIa R (FcγRIIa allotype with Arg at position 131), extracellular domain with C-terminal His tag (human, UniProt P12318 34-217)
T1 chain: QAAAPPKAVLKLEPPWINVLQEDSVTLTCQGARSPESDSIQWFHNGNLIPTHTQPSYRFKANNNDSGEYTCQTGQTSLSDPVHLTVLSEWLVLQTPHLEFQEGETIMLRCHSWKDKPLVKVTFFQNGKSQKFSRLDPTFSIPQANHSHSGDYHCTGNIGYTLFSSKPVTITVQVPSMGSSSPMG

T2: FcγRIIb, extracellular domain with C-terminal His tag (human, UniProt P31994 43-217)
T2 construct: extracellular domain; also called FcgRIIb; 2b; not shown: His tag attached to the C terminus
T2 sequence (looked up): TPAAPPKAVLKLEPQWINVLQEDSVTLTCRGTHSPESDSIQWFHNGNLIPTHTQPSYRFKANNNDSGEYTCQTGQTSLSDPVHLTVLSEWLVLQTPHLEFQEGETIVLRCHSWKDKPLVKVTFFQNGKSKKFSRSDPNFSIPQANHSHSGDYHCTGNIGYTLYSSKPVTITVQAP

T3: FcgRIIa R (human, UniProt P12318 34-217)
T3 construct: extracellular domain; also called FcγRIIa R; FcγRIIa type R
T3 sequence (looked up): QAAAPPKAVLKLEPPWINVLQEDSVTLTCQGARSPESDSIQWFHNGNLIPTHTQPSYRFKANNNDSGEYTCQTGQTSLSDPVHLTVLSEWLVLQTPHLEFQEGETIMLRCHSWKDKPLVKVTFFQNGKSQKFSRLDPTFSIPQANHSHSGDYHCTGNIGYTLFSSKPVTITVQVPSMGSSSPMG

T4: FcgRIIa H (human, UniProt P12318 34-217)
T4 construct: extracellular domain; also called FcγRIIa H; FcγRIIa type H
T4 sequence (looked up): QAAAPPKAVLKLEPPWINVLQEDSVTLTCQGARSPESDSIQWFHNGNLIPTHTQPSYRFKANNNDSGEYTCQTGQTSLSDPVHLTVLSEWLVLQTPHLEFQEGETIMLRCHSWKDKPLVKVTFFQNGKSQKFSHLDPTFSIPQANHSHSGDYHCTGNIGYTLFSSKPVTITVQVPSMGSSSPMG

T5: FcgRIIb (human, UniProt P31994 43-217)
T5 construct: extracellular domain; also called FcγRIIb; CD32B
T5 sequence (looked up): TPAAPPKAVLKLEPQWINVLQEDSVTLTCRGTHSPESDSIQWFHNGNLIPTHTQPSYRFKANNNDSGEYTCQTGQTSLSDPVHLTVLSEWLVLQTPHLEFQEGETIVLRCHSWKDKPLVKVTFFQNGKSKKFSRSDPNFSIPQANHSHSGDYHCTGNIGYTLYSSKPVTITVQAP


Key:
[1] = target: T1, FcγRIIa R (FcγRIIa allotype with Arg at …); experiment: SPR (Biacore T100), antibody captured on antigen peptide chip, FcγR as analyte; binding amount relative to control heterodimerized antibody
Experimental: (§1) The heterodimerized antibodies He Abs in which one of the H chains was introduced with an alteration were assayed for their binding activities to each activating FcγR and inhibitory FcγR according to the method described in Example 4. […] The activating FcγRs in FIGS. 26, 27, 28, and 29 are FcγRIa, FcγRIIa (R), FcγRIIa (H), and FcγRIIIa, respectively.
(§2) Analysis of interaction between objective antibody and the FcγR was carried out using Biacore T100 (GE Healthcare). HBS-EP+ (GE Healthcare) was used as the running buffer, and the measurement temperature was set to 25° C. Chips produced by immobilizing the antigen peptide by the amine coupling method to a Series S Sencor Chip CM5 (GE Healthcare), or alternatively, chips produced by allowing preliminarily biotinylated antigen peptides to interact with and immobilize onto a Series S Sensor Chip SA (certified) (GE Healthcare) were used. Antibodies of interest were captured onto an antigen peptide-immobilized chip, and allowed to interact to each FcγR diluted with running buffer. To regenerate and repeatedly use the chip, the antibodies captured on the chip were washed off by reacting 10 mM glycine-HCl, pH 1.5.

[2] = target: T2, FcγRIIb, extracellular domain with …; experiment: as above
Experimental: as §1, §2

[3] = target: T1, FcγRIIa R (FcγRIIa allotype with Arg at …); experiment: SPR (Biacore T100); ratio of He/Con for FcγRIIa R to He/Con for FcγRIIb of the same antibody
[4] = target: T6, FcgRIIIa V (human, UniProt P08637 17-208); experiment: SPR (Biacore); KD of GpH7-Kn033/GpH7-Hl033/GpL16-k0 for this FcγR divided by KD of this antibody
T6 construct: extracellular domain; also called FcγRIIIa V; FcγRIIIaV
T6 sequence (P08637 17-208 F176V limits assumed): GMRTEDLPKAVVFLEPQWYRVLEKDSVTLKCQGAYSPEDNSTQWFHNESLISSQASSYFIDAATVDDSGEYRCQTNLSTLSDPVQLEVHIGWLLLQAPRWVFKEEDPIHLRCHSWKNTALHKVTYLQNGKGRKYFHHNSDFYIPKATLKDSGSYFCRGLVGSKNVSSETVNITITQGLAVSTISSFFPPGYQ
Experimental: (§3) These antibodies were assessed for the binding activity to each FcγR according to the method described in Reference Example 2.
as §2

[5] = target: T3, FcgRIIa R; experiment: as above
Experimental: as §3, §2

[6] = target: T7, FcgRIa (human, UniProt P12314 16-292); experiment: as above
T7 construct: extracellular domain; also called FcγRIa; FcγRI
T7 sequence (P12314 16-292): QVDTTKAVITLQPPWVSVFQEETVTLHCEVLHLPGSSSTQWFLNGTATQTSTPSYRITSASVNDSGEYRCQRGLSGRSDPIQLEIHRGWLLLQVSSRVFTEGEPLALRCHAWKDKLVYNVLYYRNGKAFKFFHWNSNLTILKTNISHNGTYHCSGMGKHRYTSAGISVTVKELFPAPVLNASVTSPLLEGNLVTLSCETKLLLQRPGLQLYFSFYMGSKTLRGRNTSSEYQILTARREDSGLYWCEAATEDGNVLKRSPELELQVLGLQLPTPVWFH
Experimental: as §3, §2

[7] = target: T8, FcgRIIIa F (human, UniProt P08637 17-208); experiment: as above
T8 construct: extracellular domain; also called FcγRIIIa F; FcγRIIIaF
T8 sequence (P08637 17-208): as the sequence (P08637 17-208 F176V limits assumed) above, with V160F counted along it
Experimental: as §3, §2

[8] = target: T4, FcgRIIa H; experiment: as above
Experimental: as §3, §2

[9] = target: T5, FcgRIIb; experiment: as above
Experimental: as §3, §2

| He/Con_2aR (IIaR binding) [1] | He/Con_2b (IIb binding) [2] | He_2aR/2b (IIaR/IIb) [3] | KD ratio [4] [fold] | KD ratio [5] [fold] | KD ratio [6] [fold] | KD ratio [7] [fold] | KD ratio [8] [fold] | KD ratio [9] [fold] | Binder |
| --- | --- | --- | --- | --- | --- | --- | --- | --- | --- |
| 117 relative binding activity, GpH7-A5/GpH7-B3/GpL16-k0 = 100 | 149 relative binding activity, GpH7-A5/GpH7-B3/GpL16-k0 = 100 | 0.78 |  |  |  |  |  |  | GpH7-A5/GpH7-B3 variant L328_13S/GpL16-k0 (heterodimerized antibody He Ab, L328S in one H chain) (antibody, human IgG1, kappa, Anti-glypican-3 human IgG1-type antibody; the alteration is in only one of the two H chains (the GpH7-B3 chain)) heavy 1: not shown heavy 2: not shown light: DIVMTQSPLSLPVTPGEPASISCQASESLVHSNRNTYLHWYLQKPGQSPQLLIYKVSNRFSGVPDRFSGSGSGTDFTLKISRVEAEDVGVYYCSQNTHVPPTFGQGTKVEIERTVAAPSVFIFPPSDEQLKSGTASVVCLLNNFYPREAKVQWKVDNALQSGNSQESVTEQDSKDSTYSLSSTLTLSKADYEKHKVYACEVTHQGLSSPVTKSFNRGEC |
| 155 relative binding activity, GpH7-A5/GpH7-B3/GpL16-k0 = 100 | 235 relative binding activity, GpH7-A5/GpH7-B3/GpL16-k0 = 100 | 0.66 |  |  |  |  |  |  | GpH7-A5/GpH7-B3 variant L328_20W/GpL16-k0 (heterodimerized antibody He Ab, L328W in one H chain) (antibody, human IgG1, kappa, Anti-glypican-3 human IgG1-type antibody; the alteration is in only one of the two H chains (the GpH7-B3 chain)) heavy 1: not shown heavy 2: not shown light: DIVMTQSPLSLPVTPGEPASISCQASESLVHSNRNTYLHWYLQKPGQSPQLLIYKVSNRFSGVPDRFSGSGSGTDFTLKISRVEAEDVGVYYCSQNTHVPPTFGQGTKVEIERTVAAPSVFIFPPSDEQLKSGTASVVCLLNNFYPREAKVQWKVDNALQSGNSQESVTEQDSKDSTYSLSSTLTLSKADYEKHKVYACEVTHQGLSSPVTKSFNRGEC |
|  |  |  | 84 | 43 | 6 | 161 | 22 | 16 | GpH7-Kn037/GpH7-Hl036/GpL16-k0 (antibody, human IgG1, kappa, also called Kn037/Hl036) heavy 1: QVQLVQSGAEVKKPGASVTVSCKASGYTFTDYEMHWIRQPPGEGLEWIGAIDPKTGDTAYSESFQDRVTLTADKSTSTAYMELSSLTSEDTAVYYCTRFYSYTYWGQGTLVTVSSASTKGPSVFPLAPSSKSTSGGTAALGCLVKDYFPEPVTVSWNSGALTSGVHTFPAVLQSSGLYSLSSVVTVPSSSLGTQTYICNVNHKPSNTKVDKKVEPKSCDKTHTCPPCPAPELLAGPDVFLFPPKPKDTLMISRTPEVTCVVVDVSHEDPEVKFNWYVDGVEVHNAKTKPREEQYNSTYRVVSVLTVLHQDWLNGKEYKCKVSNKALPAPEEKTISKAKGQPREPQVCTLPPSRDELTKNQVSLWCLVKGFYPSDIAVEWESNGQPENNYKTTPPVLDSDGSFFLYSKLTVDKSRWQQGNVFSCSVMHEALHNHYTQKSLSLSP heavy 2: QVQLVQSGAEVKKPGASVTVSCKASGYTFTDYEMHWIRQPPGEGLEWIGAIDPKTGDTAYSESFQDRVTLTADKSTSTAYMELSSLTSEDTAVYYCTRFYSYTYWGQGTLVTVSSASTKGPSVFPLAPSSKSTSGGTAALGCLVKDYFPEPVTVSWNSGALTSGVHTFPAVLQSSGLYSLSSVVTVPSSSLGTQTYICNVNHKPSNTKVDKKVEPKSCDKTHTCPPCPAPELLAGPDVFLFPPKPKDTLMISRTPEVTCVVVDVSHEDPEVKFNWYVDGVEVHNAKTKPREEQYNSTYRVVSVLTVLHQDWLNGKEYKCKVSNKALPAPEEKTISKAKGQPREPQVYTLPPSRCELTKNQVSLSCAVKGFYPSDIAVEWESNGQPENNYKTTPPVLDSDGSFFLVSKLTVDKSRWQQGNVFSCSVMHEALHNHYTQKSLSLSP light: DIVMTQSPLSLPVTPGEPASISCQASESLVHSNRNTYLHWYLQKPGQSPQLLIYKVSNRFSGVPDRFSGSGSGTDFTLKISRVEAEDVGVYYCSQNTHVPPTFGQGTKVEIERTVAAPSVFIFPPSDEQLKSGTASVVCLLNNFYPREAKVQWKVDNALQSGNSQESVTEQDSKDSTYSLSSTLTLSKADYEKHKVYACEVTHQGLSSPVTKSFNRGEC |
